US5434068

Tested on: BglII restriction endonuclease (R.BglII) (Bacillus globigii)
Experiment: cleavage_in_vitro
Settings: nonspecific nicking test; 80 units, 4 h, 37 C, 10 mM MgCl2

For phiX174 RFI DNA, the activity (% converted to RFII) was 10.
